experiment: yeast display, Sf9 membrane polyspecificity reagent, FACS + sequencing; frameworks hold sequencing errors
How it was run: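 Genes from sorted yeast were amplified by colony PCR, read by MiSeq 2 × 250 sequencing and filtered on CDR length. These cells carried a synthetic nanobody library in Saccharomyces cerevisiae BJ5465 and were sorted by FACS into low and high (top ~1%) gates on anti-HA and streptavidin fluorescence. Polyreactivity is labelled according to the gate of origin.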

Sequence | polyreactivity (PSR sort gate)
QVQLVESGGGLVQAGGSLRLSCAASGSIFGLYAMGWYRQAPGKERELVAAINWNGGDTYYADSVKGRFTISRDYAKNTVYLQMNSLIAVDNAVYYCAAYPRDPYKEYDYLGQGTQVTVSS | low polyreactivity
QVQLVESGGGLVQAGASLRLSCAASGRTFGYYAMGWYRQAPGKERELVATISRRGGRTYYADSVKGRFTISRDNAKNTVYLQMNSLKPEDTAVYYCNKYLASYSYSDLVYWGQGTQVTVSS | high polyreactivity
QVQLVESGGGLVQAGGSLRLSCAASGLTFSKYVMGWYIQAPGKERELVAAITWSGGRTYYADSVKGRFTISRDNAKNTVYLQMNSLKPEDTAVYYCNRKLKGLGYEYDYWGQGTQVTVSS | high polyreactivity
QVQLVESGGGLVNAGGSLRLSCAASGITLVVYGMGWYRQAPGKETELVAAMTSGGRTYYADSVTGRFTISRDNAKNTVYLQMNSLKPEDTAVYYCAADRYFRQYGRYYYWGQGTQVTVSS | high polyreactivity
QVQLVESGGGLVQAGGSLRLSCAASGSTFIWYARGWYRQAPGKERELVAAISRSGGSTYYADSVKGRFTISRDNAKNTVYLQMNSLKPEDTAVYYCNTYPTYQYYYWGQGTQVTVSS | high polyreactivity
QVQLVESGGGLVQAGGSLRLSCAASGSIFYLYTMGWYRQAPGKERELVAAITSGGSTNYADSVKGRFTISRDNAKNTVYLQMNSLKPEDTAVYYCAAEYFDWWVTYDYWGQGTQVTVSS | high polyreactivity
QVQLVESGGGLVQAGGSLRLSCAASGRTFWSNAMGWYRPAPGKERELVAAITWSGGSTSYADSVKGRFTISRDNAKNTVYLQMNSLKPEDTAVYYCAAGKGVELAKLDYWGQGTQVTVSS | low polyreactivity
QVQLVESGGGLVQAGGSLRLSCAASGSTFKSYAKGWYRQAPGKEREFVAAIRGNGARTYYADSVKGRITISRDNAKNTVYFQMNSLKPEDTAVYYCNAVRYSFSDSSVDYWGQGTQVTVSS | high polyreactivity
QVQLVESGGGLVQAGGSLRLSCAASGRTFGWYAMGWYRQAPGKERELVAAITSGTSTYYADSVKGRFTISRDNAKNTVYLQMNSLKPEDTAVYYCAAQQGISNGTGVSATNPMDYWGQGTQVTVSS | low polyreactivity
QVQLVESWGGLVQAGCSLRISCAASGSTLYSYAMGWNIQAPGKERELVAAINSGSNTYYADSVKGRFTISRDNAKNTVYLQMNSLKPEDTAVYYCAAKGIIYTGYDGARRAYGYWGQGTQVTVSS | high polyreactivity
QVQLVESAGGLFQAGGSLRLSCAASGRTFYSNTMGWYRQAPGKEREFVAAIPSIVGSTYYADSVKGRFTISRDNSKNTVYLQMKSLKPEDTAVYDCAVTDYYSYLLRYDSWGQGTEVTVSS | low polyreactivity
QVQLVESGGGLVQAGGSLRLSCAASGFIFSKYAMGWYRQAPGKERELVAAISWNGGSTYYADSVKGRFTISRDNAKNTVYLQMNSLKPEDTAVYYCNTGYGRIRRPGALDYWGQGTQVTVSS | high polyreactivity
QVQLVESGGGLVHAGGRLRLSCAASGSIFDYYAMGWSRPAPGKERELVADNTSGGSTNYADSVKGRFTISRDNAKNTVYLQMNSLKPEDTAVYYCATRIGYSDWPDGVWDLDDSEYYYWGQGTQVTVSS | low polyreactivity
QVQLVESGGCLVQAGGSLRLSCAASGRIFNYNAMGWYRQAPGKARELVAVITSGDSTNYADSVKGRFTISRDNAKNNVYLQMNSLKPEDTAVYYCAAEYYSIRYGPHSIEVYGMDYWGQGTQVTVSS | low polyreactivity
QVQLVESGGGLVQAGGSLRLSCAASGRTFVYNAKGWYRQAPGKEREVVAGITGSGDSTYYADSVKGRFTISRDNAKNTVYLQMNSLKPEDTAVYYCNQLVEEDYWGQGTQVTVSS | low polyreactivity
QVQLVESVGGLVQAGGSLRLSCAASGSTFYHYAMGWYRQAPGKVRELVASISHSGGRTFYADSVKGRFTISRDNAMNTVYLQMNSLKPEDTAVYYCAADWRTRYDYWGQGTQVTVSS | low polyreactivity
QVQLVESGGGLVQAGGSLRLSCAASGSIFPYYAMGWSRQAPGKERELVASINQSDGTTYYADSVKGRFTISRDNAKNTVYLQMNSLKPEDTAVYYCAAAYFYWRVDKYYYWGQGTQVTVSS | low polyreactivity
QVQLVESGGGLVQAGGSLRLSCAASGSTFLKYDMGWYRQAPGKERELVAAISWDGGSTYYADSVKGRFTISRDNAKNTVYLQMNSLKPEDTAVYYCNADYDVYLTIWYYYGEFDYWGQGTQVTVSS | low polyreactivity
QVQLVESGGGLVQAGGSLRLSCDASGSIFDLNAMGWYRQAPGKERELVAAISSGGGTNYADSVKGRFTISRDNAKNTVYLQMYSLKPEDTAVYYCAVGSTRDGVYLGQGTQVTVSS | high polyreactivity
QVQLVESGGGLVQAGGSLRLSCASSGGTFISYAMGWYRQAPGKERELVAAISRGGSSTYYADSVKGRFTISRDNAKNTVYLQMNSLKPEDTAVYYCNKAYHRRDSEFGYWGQGTQVTVSS | high polyreactivity
QVQLVESGGGLVQAGGSLRLSCAASGSTFGWYTMGWYRQAPGKERELVAAMTSRGTRTSYADSVKGRFTISRDNAKNTVYLQMNSLKPEDTAVYYCAARVFRGLGEYYWGQGTQVTVSS | high polyreactivity
QVQLVESGGGLVQAGGSLRLSCAASGLIFTTNAMGWYRQAPGKERELVAAISTSTGRTYYADSVKGRFTISRDNAKNTVYLQMNSLKPEDTAVYYCARGSRYVGTQRHYYKYDYWGQGTQVTVSS | high polyreactivity

Sequence | polyreactivity (PSR sort gate)
QVQLVESGGGLVQAGGSLRLSCAASGSTFYQYVMGWYRQAPGKESELVAAISSSGGSTYYADSVKGRFTISRDNAKNTVYLQMTSLKPEDTAVYYCAVDNYRGYGHDYYWGQGTQVTVSS | low polyreactivity
QVQLVDSGGGLVQAGGTLRLSCAASGRTIYRNDMGWYRQAPGQERELVAAITSSGGTTYADSVKGRFTISRDNAKNTGYLQMNSLKPEDTAVYYCAAVYAYPNIYDYWGQGTQVTVSS | low polyreactivity
QVQLVETGGGLVQAGGSLRLSCAASGSIFGDNAMGWYRQAPGKERELVAAIDQSGDSTYYADSVKGRFTISRDNAKNTVYLQMNSLKPEDTAVYYCAAQSYDYWYDYDYWGQGTQVTVSS | high polyreactivity
QVQLVESGGGLVQAGGSLRLSCAASGLTLETNAMGWYRQAPGKERELVAGITYSGGTTYYADSVKGRFTISRDNAKNSVYLQINSLKPDDTAVYDCNAGPLRSGRYTYYYWGQGTQVTVSS | low polyreactivity
HVQLGESGGGLVQAGGSLRLSCAASGFIFQRYAMGWDRQAPGKERELVAAITTSGGRTYYADSVKGRFTMSRDNAKKTVYLQMNSLKPEDTAVYYCAAEGSHNSEYWGQGTQVTVSS | high polyreactivity
QVNLVETGGGLVQAVCSLRLSCAASGSIFGIYTMGWYRQAPGKERELVAAINSGGSTIYADSVKGRFTISRDNAKNTVYLQMNSLKPEDSAVYYWIAYIHPPGPRVYSREYDYWGQGTQLTVSS | low polyreactivity
QVQLVESGGGLVQAGGSLRLSCAASGSNFTFYAMGWYRQAPGKERELVAAISKGGDRTYYADSVKGRFTISRDNAKNTVYLQMNSLKPEDTAVYYCARLVRPGRFGDGDYWGQGTQVTVSS | low polyreactivity
QVQLVESGGGLVQAGGSLRLSCAASGSTFRFYAMGWYRQAPGKERELVAVISFNDGSTYYADSVKGRFTISRDNAKNTVYLQMNSLKPEDTAVYYCATDELDSWWYEYEYWGQGTQVTVSS | low polyreactivity
QVQLVESGGGLVQAGGSLRLSCAASGSIFARYAMGWYRQAPGKERELVAAINSTVSTNYADSVKGRFTISRDNAKNTVYLQMNSLKPEDTAVYYCAVDIVRGGRDSWGQGTLVTVSS | low polyreactivity
QVQLVESGGGLVQAGGSLRLSCADSGRTFGVYTMGWYRQAPGKERELVAAISGSGGSTYYADSVKGRFTISRDNAKNTVYLQMNSLKPEDTAVYYCNADQNVDVFYRYRLYDSWGQGTQVTVSS | high polyreactivity
QVQLVESGGRLVQAGGSLRLSCAASGIIFWVNAMGWYRQSTGKESELVAAISGRGGRTYYVDSVKGRFTISRDNAKNTVYLQMNSLKPEDTAVYYCNTVPYPAYLARMDYWGQGTQGTVSS | high polyreactivity
QVQLVESGGGLVQAGGSLRLSCAASGFIFAYYAMGWYRQAAGKERELVAAITSDGSTYYADSVKGRFTISRDNAKNTVYLQMNSLKPEDTAVYYCNTYWVLRPGYNYWGQGTQVTVSS | high polyreactivity
QVQLVESGGGLVQAGGSLRLSCAASGSIYYAMGWYRQAPGKEREFVAAINSGGSTYYADSVKGRFTISRDNAKNTVYIQMNSLKPEDTAVYYCAKPTYRFYWGDFDYWGQGTQVTVSA | low polyreactivity
QVQLVESGGGLVQAGGSLRLSCAASGSIFYRNAMGWYIQAPGKERELVAAISRRGGITYYADSVKGRFTISRDNAKNTVYLQMNSLKPEDTAVYYCYTDTGGMDYWGQGTQVTVSS | high polyreactivity
QVQLVESGGGLVQAGGSLRLSCAASGSTFRYNAMGWYRQAPGKERELVAAISSGSSTNYADSVKGRFSISRDNAKNTVYLQMNSLKPEDTAVYYCAAQPGYYDDFYYWGQGTQVTVSS | low polyreactivity
QVQLEESGAGLVQAGGSLRLSCAASGSIFVRNAMAWYRHAPGKERELVAVITRSAGRTYYADSVKGRFTISRDNAKNTVYLQMNSLKPEDTAVYYCAASPSTPNKYGSWGQGTQVTVSS | high polyreactivity
QVQLVESRGGLVQAGGSLRISCAASGNIFLDYVMGWSRQAPGKERELVAAINSGGSTYYADSVKGRFTISSDNAKNTVYLQMNSLKPEDTAVYYCAADDYYKFDYWGQGTQVTVSS | low polyreactivity
QVQLVESGGGLVQAGGSLRLSCAASGFNITYVMGWYRQAPGKERELVAVITNGGSTYYADSVKGRFTISRDNAMNTVYLLMNSLKPEDTAVYYCAARARFRYDSYYYWGQGTQLTVSS | high polyreactivity
QVQLVDSGGGLVQAGVSLRLSCAASGFTFVFYAMGWYRQAPGKERELVAAISGRGGSTYYADSVKGRFTISRDNAKNTVYLQMNSLKPEDTAVYYCNALYVYRSVANFDYWGQGTQVTVSS | high polyreactivity
QVQLVESGGGLVQAGGSLRLSCAASGGIFWYYTMGWYRQAPGKERELVATLSSGGRTYYADSVKGRFTMSRDNAKNTVYLQMNSLKPEDTAVYYCAAVGWYHDYYWGQGTQVTVSS | high polyreactivity
QVQLVESCGGLVQAGGSLRLSCAASGSIFAYYAMGWYRQAPGKERDLVAAISRGGGSTYYADSVTGRFTLSRDNAKNTVYLQMNSLKQEDTAVYYCDAYYAKGRAYDYDYWGQGTQVTVSS | high polyreactivity
